Results as given in paper PMC10003451, “Phosphorylated Peptide Derived from the Myosin Phosphatase Target Subunit Is a Novel Inhibitor of Protein Phosphatase-1” (International Journal of Molecular Sciences, 2023).
Where no end group is shown, it is not given here. [ ]: non-standard residue; d: D form. pT = C[C@@H](OP(=O)(O)O)[C@H](N)C(=O)O

Columns and labels:
[1] = biological target: T1, recombinant protein phosphatase-1 catalytic subunit alpha (PP1cα) (UniProt P62136 1-330); assay: MST; label-free (Monolith NT.LabelFree, intrinsic fluorescence of rPP1cα); 16-point two-fold peptide dilution 9.16 nM-300 µM mixed with rPP1cα 2 µM; 25 mM Tris/HCl, 100 mM NaCl, 1 mM DTT, 0.1% PEG 8000, pH 8.0; conditions: both partners purified
T1 construct: protein phosphatase-1 catalytic subunit, alpha isoform; recombinant; also called rPP1cα; recombinant PP1c; source: E. coli, purified from the bacterial lysate
T1 sequence (P62136 whole entry, canonical isoform): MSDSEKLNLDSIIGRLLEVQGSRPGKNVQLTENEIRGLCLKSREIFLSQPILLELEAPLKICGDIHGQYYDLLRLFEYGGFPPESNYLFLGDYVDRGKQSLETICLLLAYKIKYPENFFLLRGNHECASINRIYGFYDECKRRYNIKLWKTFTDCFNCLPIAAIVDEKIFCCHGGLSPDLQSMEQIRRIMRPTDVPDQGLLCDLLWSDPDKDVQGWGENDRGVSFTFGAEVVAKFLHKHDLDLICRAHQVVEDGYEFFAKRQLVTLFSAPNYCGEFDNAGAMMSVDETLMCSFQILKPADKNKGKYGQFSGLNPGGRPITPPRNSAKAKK

[2] = biological target: Flag-MYPT1-PP1c complex (myosin phosphatase holoenzyme) ( | human (endogenous in …, UniProt O14974 1-1030; P62140 1-327); assay: cell-based or functional assay
Chain of Flag-MYPT1-PP1c complex (myosin phosphatase holoenzyme) ( | human (O14974 whole entry, chain 1 of 2): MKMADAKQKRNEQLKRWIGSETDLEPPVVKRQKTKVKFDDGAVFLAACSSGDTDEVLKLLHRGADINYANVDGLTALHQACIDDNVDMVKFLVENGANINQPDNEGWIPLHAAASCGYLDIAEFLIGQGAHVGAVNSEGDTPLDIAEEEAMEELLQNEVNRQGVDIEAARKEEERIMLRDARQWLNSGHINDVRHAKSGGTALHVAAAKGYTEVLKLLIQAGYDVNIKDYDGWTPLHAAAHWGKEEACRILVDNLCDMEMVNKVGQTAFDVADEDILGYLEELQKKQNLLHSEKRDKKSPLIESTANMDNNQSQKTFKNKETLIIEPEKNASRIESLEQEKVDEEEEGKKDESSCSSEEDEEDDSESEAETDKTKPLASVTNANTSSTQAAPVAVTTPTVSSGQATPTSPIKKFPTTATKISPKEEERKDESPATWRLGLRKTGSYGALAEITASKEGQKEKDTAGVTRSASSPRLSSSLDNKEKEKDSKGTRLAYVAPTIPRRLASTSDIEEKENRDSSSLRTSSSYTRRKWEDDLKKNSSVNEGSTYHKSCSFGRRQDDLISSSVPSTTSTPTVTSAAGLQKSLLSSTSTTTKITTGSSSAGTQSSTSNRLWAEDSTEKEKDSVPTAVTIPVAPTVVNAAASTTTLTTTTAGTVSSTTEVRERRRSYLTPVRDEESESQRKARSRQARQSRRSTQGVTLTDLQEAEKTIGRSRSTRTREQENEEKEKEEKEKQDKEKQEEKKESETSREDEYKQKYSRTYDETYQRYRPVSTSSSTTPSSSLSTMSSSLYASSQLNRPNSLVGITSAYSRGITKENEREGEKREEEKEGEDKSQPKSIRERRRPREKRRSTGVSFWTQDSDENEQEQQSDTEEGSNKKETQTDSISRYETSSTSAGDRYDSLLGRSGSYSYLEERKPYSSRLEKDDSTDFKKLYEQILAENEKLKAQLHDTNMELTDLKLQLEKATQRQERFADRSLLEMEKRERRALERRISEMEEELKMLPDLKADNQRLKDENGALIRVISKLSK
Chain of Flag-MYPT1-PP1c complex (myosin phosphatase holoenzyme) ( | human (P62140 whole entry, chain 2 of 2): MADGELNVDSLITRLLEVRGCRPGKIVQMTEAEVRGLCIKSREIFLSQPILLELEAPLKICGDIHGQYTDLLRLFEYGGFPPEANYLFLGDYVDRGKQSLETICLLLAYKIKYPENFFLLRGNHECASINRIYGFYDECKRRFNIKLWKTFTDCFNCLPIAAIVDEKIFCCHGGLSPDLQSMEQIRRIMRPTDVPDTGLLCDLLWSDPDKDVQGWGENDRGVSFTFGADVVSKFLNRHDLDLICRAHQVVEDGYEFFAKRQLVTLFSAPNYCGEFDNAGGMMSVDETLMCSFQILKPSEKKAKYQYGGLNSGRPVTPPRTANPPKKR

[3] = biological target: native catalytic subunit of protein phosphatase-1 (PP1c) from rabbit skeletal muscle (rabbit, UniProt P62139 1-330); assay: cell-based or functional assay
Chain of native catalytic subunit of protein phosphatase-1 (PP1c) from rabbit skeletal muscle (P62139 whole entry): as the sequence (P62136 whole entry, canonical isoform) above

[4] = biological target: T1, recombinant protein phosphatase-1 …; assay: ITC; MicroCal ITC200; rPP1cα (0.5-2 µM) in the cell, peptide (5-20 µM) in the syringe, 19 injections of 2 µL; 25 mM Tris/HCl pH 8.0, 150 mM NaCl, 1 mM TCEP; 25 °C; one set of sites model; conditions: both partners purified

B1: P-Thr696-MYPT1^690−701 (phosphorylated peptide of the inhibitory region of myosin phosphatase target subunit-1) (peptide)
peptide: RQSRRS[pT]QGVTL
notes: myosin phosphatase target subunit-1 (MYPT1), residues 690-701, phosphorylated at Thr696; no tags; also called R^690QSRRS(pT696)QGVTL^701; P-Thr-MYPT1^690−701; source: synthetic peptide, bought: Pepmic
Kd [1]: 33.2 ± 5.12 µM | IC50 of inhibition of the phosphatase activity of Flag-MYPT1-PP1c with 32P-MLC20 substrate [2]: 12.2 µM | IC50 of inhibition of the phosphatase activity of rabbit skeletal muscle PP1c with 32P-MLC20 substrate [3]: 3.84 µM | half-life of dephosphorylation of 10 µM 32P-MLC20 by 100 nM PP1c with 0, 10, 100 and 500 µM peptide (101.6, 149.7, 227.9, 604.06 s); the peptide competes with the substrate P-MLC20 on PP1c [3]: 10.1 min | half-life of dephosphorylation of 100 µM peptide by 100 nM PP1c in the presence of 10 µM P-MLC20 (dot blot; 87.9 min without P-MLC20) [3]: ~103 min | Kd [4]: 0.39 ± 0.18 µM
